Earlier results on one molecule are cited in patent US20200216492A1, “USE OF C-TERMINALLY EXTENDED PEPTIDES TO DISRUPT INHIBITOR NK CELL RECEPTOR INTERACTIONS WITH MHC I” (La Jolla Institute for Allergy and Immunology, priority 2016, published 2020).

The target in this data set is HLA-B*57:01 (Homo sapiens, UniProt P01889, D201E/D98Y/E176V/E187L/E204Q/E69M/E70A/G107R/I90N/K202T/L105A/L119I/N104I/N87E/Q89R/Q94S/R106L/R155S/R180L/R86G/S101N/S121V/S35A/S48A/T118I/V36M/Y140S/Y91M). As to conditions: previously determined; read-out: binding affinity KD to HLA-B*57:01.

B1: KIR3DL1: inhibitory killer immunoglobulin receptor on NK cells binding HLA-B*57:01 (protein, UniProt P43629 22-444, looked up)
Killer cell …: HMGGQDKPFLSAWPSAVVPRGGHVTLRCHYRHRFNNFMLYKEDRIHIPIFHGRIFQESFNMSPVTTAHAGNYTCRGSHPHSPTGWSAPSNPVVIMVTGNHRKPSLLAHPGPLVKSGERVILQCWSDIMFEHFFLHKEGISKDPSRLVGQIHDGVSKANFSIGPMMLALAGTYRCYGSVTHTPYQLSAPSDPLDIVVTGPYEKPSLSAQPGPKVQAGESVTLSCSSRSSYDMYHLSREGGAHERRLPAVRKVNRTFQADFPLGPATHGGTYRCFGSFRHSPYEWSDPSDPLLVSVTGNPSSSWPSPTEPSSKSGNPRHLHILIGTSVVIILFILLLFFLLHLWCSNKKNAAVMDQEPAGNRTANSEDSDEQDPEEVTYAQLDHCVFTQRKITRPSQRPKTPPTDTILYTELPNAKPRSKVVSCP
In the case of B1, the Kd is 17 µM.

For orientation: Kd means a measure of binding affinity in units of concentration.
